Reference: patent publication US20240327510A1, “DRUG FOR PREVENTING, ALLEVIATING OR TREATING MUCOSAL ADHESION AND USE THEREOF” (SHANGHAI SYNVIDA BIOTECHNOLOGY CO. LTD., priority 2021, published 2024)
Substitutions are numbered along the chain they refer to. Names and notes keep the numbering of the source.

B1: hLF105: humanized anti-human Pear1 antibody; VH SEQ ID NO: 8, VL SEQ ID NO: 22 (antibody, V domains shown)
VH: QVQLVQSGAEVKKPGASVKVSCKASGYTFTGYPMNWVRQAPGKRLEWMGVINPYNGGTSYNQKFKGRATLTVDTSASTAYMELSSLRSEDTAVYYCARGGVRPFAYWGQGTLVTVSS
VL: DIQMTQSPSSLSASVGDRVTITCKASEDIYNRLAWYQQKPGKAPKLLISGATSLETGVPSRFSGSGSGNDFTLTISSLQPEDFATYYCQQYWSTPTFGQGTKLEIK
B2: hLF110: humanized anti-human Pear1 antibody; VH SEQ ID NO: 9, VL SEQ ID NO: 23 (antibody, V domains shown)
VH: B1 VH with K43Q, R44N, A68V, T74K
VL: B1 VL with K42N
B3: hLF-N55Q: humanized anti-human Pear1 antibody; VH SEQ ID NO: 13, VL SEQ ID NO: 22 (antibody, V domains shown)
VH: B1 VH with N55Q
VL: B1 VL
B4: hLF107: humanized anti-human Pear1 antibody; VH SEQ ID NO: 8, VL SEQ ID NO: 24 (antibody, V domains shown)
VH: B1 VH
VL: B1 VL with F71Y
B5: LF2: anti-human Pear1 monoclonal antibody; VH SEQ ID NO: 1, VL SEQ ID NO: 16 (antibody, V domains shown)
VH: EVQLQQSGPELVKPGASMKISCKASGYSFTGYPMNWVRQSHVKNLEWIGVINPYNGGTSYNQKFKGKATLTVDKSSSTAYIELLSLTSDDSAVYYCARGGVRPFAYWGQGTLVTVSA
VL: DIQMTQTSSSFSVSLGDRVTITCKASEDIYNRLAWYQQKPGNAPRLLISGATSLETGVPSRFSGSGSGNDYTLSITSLQTEDVATYYCQQYWSTPTFGAGTKLELQ

Legend:
[1] = tested on: humanized Pear1 mice; assay: Peritoneal adhesion model, indicators related to adhesion (immunohistochemistry or RT-PCR); type: in vivo; settings: versus control group
Source text: (§1) The model was made in humanized mice within 3 cm from the caecums of vermiform in peritoneal cavity, following the methods in the literature (Zhiliang Zhang, et al., Characteristics of genesis and development of peritoneal adhesion by different causes: experiment with rats, Chinese Journal of Medicine, 2005). The mice were divided into 3 groups. groups, with 20 mice in each group: A, control group with normal saline; B, prophylactic intraperitoneal injection of anti-human Pear1 monoclonal antibody (including LF2 or hLF105 antibody) 0.5 mg/kg, once a week; C, prophylactic intraperitoneal injection of anti-human Pear1 monoclonal antibody 1 mg/kg, once a week. After the mice were euthanized at 2 time points of 2 weeks and 4 weeks, an inverted “U”-shaped incision was selected to enter the abdomen, avoiding the original surgical incision. […] And the degree of adhesion in the peritoneal adhesion model was evaluated.
(§2) For fibroblast-specific Pear1 knockout mice, a peritoneal adhesion model was used to form a sham operation on the mice. The model preparation and animal grouping were as described above.
Immunohistochemistry or RT-PCR was used to measure some indicators related to adhesion formation to reflect the severity of adhesion, such as: fibrinogen (FIB), α-smooth actin (α-SMA), MMPs/TIMPs, transforming growth factor (TGF-β1), vascular endothelial growth factor (VEGF).

[2] = tested on: humanized Pear1 mice; assay: Subcutaneous mucosal adhesion model, HE and Masson staining at wounded site; type: in vivo; settings: 5 micrograms at the wounded site every 7 days; 14th day; versus control group
Source text: Mice were anesthetized by intraperitoneal injection of pentobarbital sodium. The hair is depilated and sterilized, and the skin is excised. A thin layer of bonding agent was applied to one side of the silicone plate to fix the wound concentrically with a clamping board. Each clamping board was sutured at regular intervals with eight stitches to secure it to the intact tissue around the wound, preventing contraction of the wound edges. Sterile dressings were cut into circular shapes and attached to the silicone board for protecting the wound, preventing the animals from scratching or chewing. The anti-human Pear1 monoclonal antibody was […].
Mice were anesthetized using isoflurane, maintaining a flow of 2% isoflurane. The sterile dressings on the silicone board were peeled off (or not peeled off). Pictures were taken at the wounded sites next to the fixed position and scale bar. If necessary, sterile dressings can be reapplied. Image J was used to process the photos. The wounded area can be calculated according to the circled area by the scale.
[…] were fixed in 4% paraformaldehyde for 48 hours, after paraffin embedding, a semi-automatic rotary slicing machine (Leica; rm2235 and cm1950) was used for slicing, dewaxing is carried out at room temperature, gradient ethanol is used for rehydration, HE and Masson staining were then performed.
Subsequently, in order to detect the role of targeting Pear1 in inhibiting adhesion formation in vivo, the inventors constructed an adhesion model in humanized Pear1 mice, and at the same time instilled anti-human Pear1 monoclonal antibodies (including LF2 or hLF105) each at a dose of 5 micrograms at the wounded site, with once administration every 7 days. On the 14th day, the subcutaneous mucosal tissue at the wounded site was removed, stained with HE and Masson, and photographed under a microscope. The thickness of the subcutaneous mucosa and skin and the area of collagen were counted by Image J software for indicating the formation of adhesions.

[3] = tested on: humanized Pear1 mice; assay: Peritoneal adhesion model, BhatiaDS score; type: in vivo; parameters: key to BhatiaDS score: grade 0: no adhesion; grade I: adhesive area of the area treated in the caecums of vermiform/total area of the treated area<50%, easy for blunt separation; grade II: above-mentioned area ratio≥50%, easy for blunt dissection; Grade III: Regardless of the size of the adhesive area, as long as the adhesion is difficult to separate, blunt separation can still be performed, but the intestinal wall is obviously damaged after separation; Grade IV: Regardless of the size of the adhesive area, as long as the adhesion is firm and can no longer be bluntly separated, required sharp separation; settings: for BhatiaDS score compared with the control group: versus control group, especially in the high-dose group (1.0 mg/kg)
Source text: The model was made in humanized mice within 3 cm from the caecums of vermiform in peritoneal cavity, following the methods in the literature (Zhiliang Zhang, et al., Characteristics of genesis and development of peritoneal adhesion by different causes: experiment with rats, Chinese Journal of Medicine, 2005). The mice were divided into 3 groups. groups, with 20 mice in each group: A, control group with normal saline; B, prophylactic intraperitoneal injection of anti-human Pear1 monoclonal antibody (including LF2 or hLF105 antibody) 0.5 mg/kg, once a week; C, prophylactic intraperitoneal injection of anti-human Pear1 monoclonal antibody 1 mg/kg, once a week. After the mice were euthanized at 2 time points of 2 weeks and 4 weeks, an inverted “U”-shaped incision was selected to enter the abdomen, avoiding the original surgical incision. […] And the degree of adhesion in the peritoneal adhesion model was evaluated. […]
According to the scoring standard of BhatiaDS, grade 0: no adhesion; grade I: adhesive area of the area treated in the caecums of vermiform/total area of the treated area<50%, easy for blunt separation; grade II: above-mentioned area ratio≥50%, easy for blunt dissection; Grade III: Regardless of the size of the adhesive area, as long as the adhesion is difficult to separate, blunt separation can still be performed, but the intestinal wall is obviously damaged after separation; Grade IV: Regardless of the size of the adhesive area, as long as the adhesion is firm and can no longer be bluntly separated, required sharp separation. Each mouse was scored by 3 people respectively, and the average value was taken as the score of adhesion in this sample.

[4] = tested on: humanized Pear1 mice; assay: Peritoneal adhesion model, determination of hydroxyproline in tissues; type: in vivo; settings: versus control group
Source text: as §1, §2
The formation of tissue adhesion depends on the synthesis of collagen and hydroxyproline is the precursor of collagen synthesis. […]

[5] = tested on: subcutaneous mucosal fibroblasts; assay: TGFβ activated mucosal fibroblasts treated with antibody: hydroxyproline in supernatant and QPCR of Col7a1, ACTA2; type: cell-based, humanized Pear1 mice; settings: 1 μg/mL antibody, 10 ng/mL TGFβ, 48 hours; versus control group
Procedure: After the treatment of starvation in cultured mucosal or subcutaneous derived fibroblasts for 12 hours, 1 μg/mL anti-human Pear1 monoclonal antibody (including LF2 antibody or hLF105 antibody) was added separately to treat the cells. After 30 minutes, 10 ng/mL TGFβ was added to treat the cells for 48 hours, then the cell supernatant was collected. The content of hydroxyproline was detected using the hydroxyproline detection kit of Nanjing Jiancheng Biology Co., Ltd. according to the instructions.
Mucosal fibroblasts in Method 5 were collected. Total mRNA was extracted by Trizol method (Invitrogen, Carlsbad, CA) according to standard protocols. Complementary DNA was synthesized using reverse transcriptase (Takara). ABI7000 Real-time PCR instrument (Life Technologies) was used to detect gene expression and the PCR primer sequences are shown in Table 5. The 18sRNA gene was used as an internal reference.
To further investigate the role of targeting Pear1 in inhibiting mucosal fibroblast activation, subcutaneous mucosal fibroblasts were isolated from humanized Pear1 mice and cultured in vitro. TGFβ activated fibroblasts were treated with anti-human Pear1 monoclonal antibodies (including LF2 or hLF105) for 48 hours, and the supernatants were collected to detect the content of hydroxyproline. The cells were collected for QPCR to detect the expression levels of extracellular matrix proteins such as collagen 7a1 (Col 7a1) and smooth muscle actin a2 (ACTA2) to characterize fibroblast activation and collagen synthesis.

[6] = 0.5 mg/kg intraperitoneal once a week, 2 weeks (n = 8)
[7] = 0.5 mg/kg intraperitoneal once a week, 4 weeks (n = 8)
[8] = 1.0 mg/kg intraperitoneal once a week, 2 weeks (n = 8)
[9] = 1.0 mg/kg intraperitoneal once a week, 4 weeks (n = 8)

Row | Molecule | indicators related to adhesion (FIB, α-SMA, MMPs/TIMPs, TGF-β1, VEGF) [1] | collagen deposition in the subcutaneous mucosa at wounded sites (Masson staining) [2] | dermal thickness at wounded sites (HE staining) [2] | fibroblasts at wounded sites (HE staining) [2] | BhatiaDS score [3, 6] | BhatiaDS score [3, 7] | BhatiaDS score [3, 8] | BhatiaDS score [3, 9] | BhatiaDS score compared with the control group [3] | hydroxyproline content in tissues [4] | ability to synthesize extracellular matrix [5] | activation of fibroblasts [5]
1 | B1 | significantly lower | less collagen deposition | smaller dermal thickness | fewer fibroblasts | II (grade II: above-mentioned area ratio≥50%, easy for blunt dissection) | I (grade I: adhesive area of the area treated in the caecums of vermiform/total area of the treated area<50%, easy for blunt separation) | III | II (grade II: above-mentioned area ratio≥50%, easy for blunt dissection) | significantly lower | significantly lower | inhibited | inhibited
2 | B2 | – | – | – | – | I (grade I: adhesive area of the area treated in the caecums of vermiform/total area of the treated area<50%, easy for blunt separation) | 0 | III | I (grade I: adhesive area of the area treated in the caecums of vermiform/total area of the treated area<50%, easy for blunt separation) | – | – | – | –
3 | B3 | – | – | – | – | II (grade II: above-mentioned area ratio≥50%, easy for blunt dissection) | I (grade I: adhesive area of the area treated in the caecums of vermiform/total area of the treated area<50%, easy for blunt separation) | III | I (grade I: adhesive area of the area treated in the caecums of vermiform/total area of the treated area<50%, easy for blunt separation) | – | – | – | –
4 | B4 | – | – | – | – | II (grade II: above-mentioned area ratio≥50%, easy for blunt dissection) | I (grade I: adhesive area of the area treated in the caecums of vermiform/total area of the treated area<50%, easy for blunt separation) | IV | II (grade II: above-mentioned area ratio≥50%, easy for blunt dissection) | – | – | – | –
5 | B5 | significantly lower | less collagen deposition | smaller dermal thickness | fewer fibroblasts | I (grade I: adhesive area of the area treated in the caecums of vermiform/total area of the treated area<50%, easy for blunt separation) | – | III | I (grade I: adhesive area of the area treated in the caecums of vermiform/total area of the treated area<50%, easy for blunt separation) | significantly lower | significantly lower | inhibited | inhibited
